Test results reported in paper PMC10477112, “APP-BACE1 Interaction and Intracellular Localization Regulate Aβ Production in iPSC-Derived Cortical Neurons” (Cellular and Molecular Neurobiology, 2023).

Biological target: T1, APP-derived C-terminal fragment (APP-CTF) (human (endogenous in iPSC-derived NPCs …, UniProt P05067 672-770))
T1 construct: also called C-terminal APP; C-termAPP; source: endogenous, human iPSC-derived NPCs and cortical neurons, fixed cells
Experiment: proximity ligation; DuoLink PLA on fixed (4% PFA), permeabilised human iPSC-derived NPCs (day 45) and neurons (day 75); primary antibodies against APP (N-terminal or C-terminal), BACE1 and PSEN1; proximity of maximum 40 nm; PLA dot area divided by nuclear area
Conditions: partners not purified

B1: BACE1 (beta-secretase) (enzyme, UniProt P56817 46-501, looked up)
chain: ETDEEPEEPGRRGSFVEMVDNLRGKSGQGYYVEMTVGSPPQTLNILVDTGSSNFAVGAAPHPFLHRYYQRQLSSTYRDLRKGVYVPYTQGKWEGELGTDLVSIPHGPNVTVRANIAAITESDKFFINGSNWEGILGLAYAEIARPDDSLEPFFDSLVKQTHVPNLFSLQLCGAGFPLNQSEVLASVGGSMIIGGIDHSLYTGSLWYTPIRREWYYEVIIVRVEINGQDLKMDCKEYNYDKSIVDSGTTNLRLPKKVFEAAVKSIKAASSTEKFPDGFWLGEQLVCWQAGTTPWNIFPVISLYLMGEVTNQSFRITILPQQYLRPVEDVATSQDDCYKFAISQSSTGTVMGAVIMEGFYVVFDRARKRIGFAVSACHVHDEFRTAAVEGPFVTLDMEDCGYNIPQTDESTLMTIAYVMAAICALFMLPLCLMVCQWRCLRCLRQQHDDFADDISLLK
notes: BACE1, human, endogenous; also called β-secretase; source: endogenous, human iPSC-derived NPCs and cortical neurons, fixed cells; endogenous, SH-SY5Y cells, fixed
  fold PLA colocalization against flAPP/BACE1 in NPCs (calculated): ≥ 6.7 times
